Key:
[1] = test system: SMAD1 trans-activation potential; test: GAL4 DBD-SMAD1 luciferase trans-activation reporter assay; format: cell-based, human
Procedure: (§1) Reporter assays using the GALA DNA binding domain fused to various forms of SMAD proteins were performed as described (Meersseman, G at al, Mech. Dev, 61: 127-140, 1997). Briefly, 420 nanograms (ng) DNA was transfected/well (24 well-plate seeded with 1×10^5 HEK 293T cells) one day prior to transfection. The DNA mix included a plasmid expressing β-galactosidase under the control of the RSV promoter, for normalization purposes and a reporter plasmid encoding firefly luciferase under the control of 5 GAL4 binding sites upstream of a minimal TATA box (pG5 luc, Promega, Mannheim) and combinations of effector plasmids. The DNA content was normalized with empty vector.
Cells were harvested and lysed. β-Galactosidase (β-gal) activity was measured via the luminescent β-galactosidase kit II (Clontech, Palo Alto, Calif.), and luciferase activity via the luciferase assay system (Promega, Mannheim). All results are expressed as luciferase activity normalized with β-gal values (“relative luciferase activities”). Reporter assays with the SMAD1 DNA binding element SBE-9 (GCCG×9) (Kusanagi K et al, Mol Biol Cell 11: 555-565, 2000) cloned into pCAT5 vector (Boshart M et al, Gene 110: 129-130, 1992) were performed similarly except that cells were lysed in CAT lysis buffer. CAT enzyme was measured via CAT ELISA assay and β-gal via chemiluminescent β-gal reporter gene assay (Roche, Mannheim).
To determine whether MH2 domains involved in TAK1 binding mediated inhibition of R-SMAD biological activity, a reporter assay measuring SMAD trans-activation potential was performed. Full-length SMAD1 and deletion mutants thereof were fused in-frame with the GAL4-DNA binding domain, and SMAD trans-activation potential was measured via UAS-driven-luciferase reporter expression (FIGS. 6B & C). The trans-activating potential of SMAD1/GAL4 hybrid molecules was measured with increasing amounts of TAK1 variants. […]

[2] = test system: nucleo-cytoplasmic shuttling of SMAD1 and SMAD3; test: Immunofluorescence of Flag-tagged SMAD1 and SMAD3 localisation in HEK293T cells; format: cell-based, human; conditions: Flag-tagged SMADs
Procedure: HEK293T cells were seeded at 2×10^5 cells/well into poly-D-lysine coated 6-well plates one day prior to transfection. Transient transfections were conducted with Fugene 6. After 30 hours, the cells were fixed with 4% paraformaldehyde in phosphate buffered saline (PBS) for 10 minutes, washed twice with PBS, and permeabilized with methanol followed by 0.5% Triton-X 100 in PBS. After washing with 0.1% Triton-X 100 in PBS (PBT), blocking was performed with 5% FCS in PBT for 1 hour at room temperature. Following another PBT wash, tagged proteins were incubated with the appropriate primary antibodies. Detection was accomplished via goat anti mouse-Alexa 488 (A-11001, Molecular Probes) (5 μg/ml) antibody for murine primary antibodies.
To determine whether TAK1-dependent interference with SMAD activity affected subcellular distribution of SMAD, immunofluorescence was used to localize flag-tagged SMAD1 or SMAD3 expressed in HEK293T cells in the absence or presence of constitutively active receptors (FIG. 7).

C3H10T½-BMP2 cells [3] = test: Semi-quantitative RT-PCR of osteo-/chondrogenic marker genes and Alcian Blue staining; format: cell-based, murine; conditions: co-expression in C3H10T½-BMP2 cells
Procedure: (§2) Proteoglycan-secreting chondrocytes were identified by staining with Alcian Blue at pH 2.5 (Alcian Blue 8GS, Roth, Karlsruhe).
Total cellular RNA was prepared by TriReagent LS according to the manufacturer's protocol (Molecular Research Center Inc., Ohio, Miss.). Five μg of total RNA was reverse transcribed with oligo-dT primers and cDNA aliquots were subjected to PCR. RT-PCR was normalized by the transcriptional levels of HPRT. The primer pairs and PCR conditions used to evaluate osteo-/chondrogenic differentiation, for collagen Ia1, collagen IIa1, osteocalcin, and the PTH/PTHrP-receptor have been described (Hoffmann A et al, J. Cell Sci 115: 769-781, 2002).

[4] = test system: SMAD1-mediated transcription; test: SMAD1-SBE CAT reporter assay; format: cell-based, human; conditions: following activation by constitutively active receptors
Procedure: as §1
Cells were harvested and lysed. β-Galactosidase (β-gal) activity was measured via the luminescent β-galactosidase kit II (Clontech, Palo Alto, Calif.), and luciferase activity via the luciferase assay system (Promega, Mannheim). All results are expressed as luciferase activity normalized with β-gal values (“relative luciferase activities”). Reporter assays with the SMAD1 DNA binding element SBE-9 (GCCG×9) (Kusanagi K et al, Mol Biol Cell 11: 555-565, 2000) cloned into pCAT5 vector (Boshart M et al, Gene 110: 129-130, 1992) were performed similarly except that cells were lysed in CAT lysis buffer. CAT enzyme was measured via CAT ELISA assay and β-gal via chemiluminescent β-gal reporter gene assay (Roche, Mannheim). […]

C3H10T½-BMP2 cells [5] = test: Histological analysis and alkaline phosphatase staining of C3H10T½-BMP2 cells; format: cell-based, murine
Procedure: Murine C3H10T½ progenitor cells were cultured in high-glucose DMEM containing 10% fetal calf serum, as described (Ahrens Met al, DNA Cell Biol, 12: 871-880, 1993). Cells were stably transfected with expression plasmids encoding wt TAK1, dominant-negative (dn) or constitutively active (ca) TAK1 in pMT7T3-f1 using DOSPER™ according to the manufacturer's protocol (Roche, Mannheim) and a selection plasmid conferring puromycin resistance (pBSpacDp: parental C3H10T½ cells) or G418-resistance (pAG60: BMP2-expressing C3H10T½ cells). Individual clones were picked, propagated, and tested for recombinant expression of TAK1-variants by RT-PCR using a vector-specific and a gene-specific primer. Control cell lines (empty to expression vector) were established at the same time. Cells were plated at a density of 5,000 cells/cm^2. After reaching confluence (arbitrarily termed day 0) ascorbic acid (50 microgram/milliliter (μg/ml)) and b-glycerophosphate (10 millimolar (mM)) were added.
as §2
Osteoblast formation was evaluated as a measure of TAK1 influence on osteo-/chondrogenic differentiation potential. C3H10T½-BMP2 cells co-expressing TAK1 and its molecular variants were assessed histologically for alkaline phosphatase (ALP) activity (FIG. 8C), which is indicative of osteoblast differentiation.

trans-activating potential of GAL4-SMAD1-MH2 and GAL4-SMAD1-L+MH2 constructs ([1]; FIG. 6C): no effect
trans-activation activity after sharp drop from elevated value ([1]; higher amounts of TAK1dn): roughly 70%
increase of SMAD trans-activation ([1]; low concentrations of TAK1dn): 35%
B1: TAK1dn: dominant-negative TAK1 mutant (K63W), kinase inactive (protein)
chain: MSTASAASSSSSSSASEMIEAPSQVLNFEEIDYKEIEVEEVVGRGAFGVVCKAKWRAKDVAIWQIESESERKAFIVELRQLSRVNHPNIVKLYGACLNPVCLVMEYAEGGSLYNVLHGAEPLPYYTAAHAMSWCLQCSQGVAYLHSMQPKALIHRDLKPPNLLLVAGGTVLKICDFGTACDIQTHMTNNKGSAAWMAPEVFEGSNYSEKCDVFSWGIILWEVITRRKPFDEIGGPAFRIMWAVHNGTRPPLIKNLPKPIESLMTRCWSKDPSQRPSMEEIVKIMTHLMRYFPGADEPLQYPCQYSDEGQSNSATSTGSFMDIASTNTSNKSDTNMEQVPATNDTIKRLESKLLKNQAKQQSESGRLSLGASRGSSVESLPPTSEGKRMSADMSEIEARIVATAGNGQPRRRSIQDLTVTGTEPGQVSSRSSSPSVRMITTSGPTSEKPARSHPWTPDDSTDTNGSDNSIPMAYLTLDHQLQPLAPCPNSKESMAVFEQHCKMAQEYMKVQTEIALLLQRKQELVAELDQDEKDQQNTSRLVQEHKKLLDENKSLSTYYQQCKKQLEVIRSQQQKRQGTS
modifications: left off: small tags and cut ends
subcellular localisation of SMAD1 and SMAD3 [2]: predominantly in the nucleus
expression of osteogenic marker genes (osteocalcin, PTH/PTHrP receptor) (C3H10T½-BMP2 cells [3]): no effect
inhibition of SMAD1 transcription (CAT reporter), in words [4]: minimal inhibition
growth phenotype of C3H10T½-BMP2 cells expressing the TAK1 variant (C3H10T½-BMP2 cells [5]; after confluence): Multiple layer growth
osteoblast-like cell formation / ALP activity (C3H10T½-BMP2 cells [5]; compared to C3H10T½-BMP2 cells, 10 days post-confluence): enhanced ALP activity

— US20100209400A1, “TAK1-Mediated Regulation of Osteogenesis” (priority 2003, published 2010)
